One molecule from US8920805B2, “Inhibition of tumor metastasis by anti-neuropilin 2 antibodies” (Genentech, Inc., priority 2007, dated 2014) can be followed below.

The experiment deals with E 17.5 Hippocampal growth cones. Nature of the experiment: Hippocampal neuronal growth cone collapse assay (Sema3F). The format is cell-based. To be noted: Anti-Nrp2^B 50 μg/ml; Nrp2 ECD 10 ug/ml. The procedure:
FIG. 17. […] (A) Images of E 17.5 Hippocampal growth cones stained with rhodamine conjugated phalloidin. Control growth cones show large actin rich structures at the tip of each axon, which are reduced with Sema3F treatment. […] In contrast, Nrp2 ECD (10 ug/ml) does block this collapse. (B) Quality control for anti-Nrp2 immunohistochemistry. […] This antibody was subsequently used for IHC on fresh frozen tumor sections. (Scale bar main images=**μm and for inset images=**μm.
Then, the ability of Anti-Nrp2^B to modulate semaphorin function was tested. […] Thus, Anti-Nrp2^B acts to block specific aspects of Nrp2 function, inhibiting VEGFC but not VEGF or Sema3F mediated cellular responses.

B1: Nrp2 ECD: Nrp2 extracellular domain protein, positive control for blocking Sema3F (protein, UniProt O60462 21-864, looked up)
extracellular domain: RGQPDPPCGGRLNSKDAGYITSPGYPQDYPSHQNCEWIVYAPEPNQKIVLNFNPHFEIEKHDCKYDFIEIRDGDSESADLLGKHCGNIAPPTIISSGSMLYIKFTSDYARQGAGFSLRYEIFKTGSEDCSKNFTSPNGTIESPGFPEKYPHNLDCTFTILAKPKMEIILQFLIFDLEHDPLQVGEGDCKYDWLDIWDGIPHVGPLIGKYCGTKTPSELRSSTGILSLTFHTDMAVAKDGFSARYYLVHQEPLENFQCNVPLGMESGRIANEQISASSTYSDGRWTPQQSRLHGDDNGWTPNLDSNKEYLQVDLRFLTMLTAIATQGAISRETQNGYYVKSYKLEVSTNGEDWMVYRHGKNHKVFQANNDATEVVLNKLHAPLLTRFVRIRPQTWHSGIALRLELFGCRVTDAPCSNMLGMLSGLIADSQISASSTQEYLWSPSAARLVSSRSGWFPRIPQAQPGEEWLQVDLGTPKTVKGVIIQGARGGDSITAVEARAFVRKFKVSYSLNGKDWEYIQDPRTQQPKLFEGNMHYDTPDIRRFDPIPAQYVRVYPERWSPAGIGMRLEVLGCDWTDSKPTVETLGPTVKSEETTTPYPTEEEATECGENCSFEDDKDLQLPSGFNCNFDFLEEPCGWMYDHAKWLRTTWASSSSPNDRTFPDDRNFLRLQSDSQREGQYARLISPPVHLPRSPVCMEFQYQATGGRGVALQVVREASQESKLLWVIREDQGGEWKHGRIILPSYDMEYQIVFEGVIGKGRSGEIAIDDIRISTDVPLENCMEPISAFAGENFKVDIPEIHEREGYEDEIDDEYEVDWSNSSSATSGSGAPSTDKEKSWLYTLDP
modifications: extracellular domain
On to B1, for which the “semaphorin (Sema3F) induced growth cone collapse” value was “inhibited this collapse completely”.
